Results reported in article PMC9712689 (Communications Biology, 2022).

Target: T1, RlpA-Δ32·MltF2 complex (MST) (P. aeruginosa PAO1, UniProt Q9X6V6;Q9HZY1, amine reactive RED-NHS dye)
T1 sequence 1: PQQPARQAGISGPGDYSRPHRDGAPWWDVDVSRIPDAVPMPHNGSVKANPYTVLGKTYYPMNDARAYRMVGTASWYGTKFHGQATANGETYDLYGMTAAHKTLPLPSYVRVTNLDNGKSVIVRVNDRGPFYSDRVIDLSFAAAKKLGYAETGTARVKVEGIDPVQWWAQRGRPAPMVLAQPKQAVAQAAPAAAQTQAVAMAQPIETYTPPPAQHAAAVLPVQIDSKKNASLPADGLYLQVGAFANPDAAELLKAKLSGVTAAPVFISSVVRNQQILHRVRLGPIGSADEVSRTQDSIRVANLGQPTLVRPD
T1 sequence 2: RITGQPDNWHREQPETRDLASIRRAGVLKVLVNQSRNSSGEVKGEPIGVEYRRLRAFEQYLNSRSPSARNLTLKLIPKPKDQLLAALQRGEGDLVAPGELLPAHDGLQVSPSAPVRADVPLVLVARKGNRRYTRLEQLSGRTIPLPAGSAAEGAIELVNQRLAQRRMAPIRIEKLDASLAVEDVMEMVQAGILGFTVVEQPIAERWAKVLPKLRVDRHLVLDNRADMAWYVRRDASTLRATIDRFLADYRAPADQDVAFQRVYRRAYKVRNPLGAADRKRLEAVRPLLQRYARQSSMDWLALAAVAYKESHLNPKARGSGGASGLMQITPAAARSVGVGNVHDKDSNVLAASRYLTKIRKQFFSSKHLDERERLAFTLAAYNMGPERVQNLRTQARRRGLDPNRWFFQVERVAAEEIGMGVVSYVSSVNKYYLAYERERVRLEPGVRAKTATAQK
Assay: MST
Settings: both partners purified

B1: SltB2 (enzyme, P. aeruginosa PAO1, UniProt Q9I4G6 1-398, looked up)
chain: QPDASSFPSCLAGLQKKAQAQGISADSYERFTSGLQADLSVLDLLDAQPEFTTPLWDYLAGLVDEQRVSDGKAMLAQHDKLLDQVAARYGVDKYTVVAVWGVESDYGRIFGKRPLLTSLSTLSCYGRRQSFFQGEFLATLKLLQAGDIRDAGITGSWAGAFGHTQFMPSTYARIAVDFDGDGRRDLVGSVPDALGSTANYLKKAGWRTGQPWGYEVKVPADFPASLAGRGKRQPLSAWVARGVRRVDGQPLPGGDEKAAILLPAGAQGPAFLVYRNYDAIYSYNAAESYALAIALLSDRLRGGSGLVASWPTDDPGISRLERKQLQKALLARGYDIGEADGLIGTSTRKAIQAEQKRLGLTPADGRAGRKILEALKGAQP
For B1, the Kd was 150 nM.

B2: MltF (enzyme, P. aeruginosa PAO1, UniProt Q9HXN1 33-490, looked up)
chain: PTALERVQKEGVLRVITRNSPATYFQDRNGETGFEYELAKRFAERLGVELKIETADNLDDLYAQLSREGGPALAAAGLTPGREDDASVRYSHTYLDVTPQIIYRNGQQRPTRPEDLVGKRIMVLKGSSHAEQLAELKKQYPELKYEESDAVEVVDLLRMVDVGDIDLTLVDSNELAMNQVYFPNVRVAFDFGEARGLAWALPGGDDDSLMNEVNAFLDQAKKEGLLQRLKDRYYGHVDVLGYVGAYTFAQHLQQRLPRYESHFKQSGKQLDTDWRLLAAIGYQESLWQPGATSKTGVRGLMMLTNRTAQAMGVSNRLDPKQSIQGGSKYFVQIRSELPESIKEPDRSWFALAAYNIGGAHLEDARKMAEKEGLNPNKWLDVKKMLPRLAQKQWYAKTRYGYARGGETVHFVQNVRRYYDILTWVTQPQMEGSQIAESGLHLPGVNKTRPEEDSGDEKL
B2 gave a Kd of 260 nM.

B3: MltB (enzyme, P. aeruginosa PAO1, UniProt Q9HVX3 1-367, looked up)
chain: SSEPTPPPKPAAKPQARTVISPRPVRQSVQPILPLRGDYANNPAAQHFIDRMVSQHGFNRQQLHDLFAQTQRLDWVIRLMDRQAPTYTPPSGPNGAWLRYRKKFVTPGNVQNGVLFWDQYETDLQRASRVYGVPPEIIVGIIGVETRWGRVMGKTRIIDALSTLSFSYPRRAEFFSGELEQFLLQARKEGTDPLALRGSYAGAMGYGQFMPSSFTKYAVDFDGDGHIDLWNPRDAIGSVANYFKQHGWVSGDRVAVPASGRAPSLEDGFKTLYPLDVLASAGLRPQGPLGGHRQASLLRLDMGRNYQYWYGLPNFYVITRYNHSTHYAMAVWELGKEVDRVRHRSVVRQD
B3 was tested, and the Kd was 110 nM.

B4: MltA (enzyme, P. aeruginosa PAO1, UniProt Q9I4B6 1-385, looked up)
chain: DDGKKEPPPKPAEVTTYNSVPWDALPATSDADLLAGFNAWRSACARLAKDPVWGEPCASATTVAADPTAVRAFLQERMQVYSLRSSSNGDQGLITGYYEPVYHGSLSQGEKTPVPVYGVPDDLVVVALESVYPELKGKRLRGRLEGRVLKPYDDAATIRDNGSSAPVLAWLGDPMDLQFLQIQGSGRIQLEDGRQLRIGYGDQNGHPYKPVGRWLVEQGLVPKEEISMKRIRDWAEANPQRVSELLASNPSFVFFSLRPDSDEGPRGSLNVPLTDGYSVAIDRKVIPLGSLMWLSTTRPDDGSAVVRPVAAQDTGGAIVGEVRADLFWGTGDAAGELAGHMKQPGRLWLLWPKGAPLPAS
B4 showed a Kd of 35 nM.

B5: MltD (enzyme, P. aeruginosa PAO1, UniProt Q9I2T2 1-534, looked up)
chain: QGSGQIKGEAQAKAARPGARAVDVQFNPSWLHTQPGQNAAYNDIWDRMRDGFQLQDAISTNPRIERQRLWFLSNQSFLEQSSARGSLYMHYVVERLEERNMPLELALLPVIESAYNPFALSRSNAAGLWQFIPATGQHFNLRQTNFYDGRRDITASTNAALTYLERLHDMFNGDWMLALAAYNAGEGTVSRAIERNEKLGLPTDYWNLPLPQETQDYVPKLLALSQIVMAPDSYGISLNPINNEPYFQAVRVKRGIDLSSVAALANLDEDELYQLNPAYKRRVTMDGPQQLLVPMEKAAFLTASLDTLKPKEVTAWQQYRVRSGDSLHSIANRYRITVAELKSANRLSSNHLRKGQQLSIPGQIAGGAVKPVYQQLARQASTPARTRSYKVKNGDSLWQIARNNGVDVNDLKRWNGLDKHALKVGQTLKLQGGTQALAARKGNAAGKRDSATYYKVKQGDSMYLIAKRFNVEMKHLQRWNPRSKQALKPGQTLTLYLDTASR
For B5, the Kd was 220 nM.
